We go through two molecules from PMC9910466 (Proceedings of the National Academy of Sciences of the …, 2022).

The target in assay [1] is Ufd1^ΔSIM/Npl4 dimer, biotinylated (S. cerevisiae) (UniProt P53044). Description: BLI; biotinylated Ufd1/Npl4 dimer (WT Ufd1 or Ufd1^ΔSIM) immobilised on streptavidin biosensors, serial dilution of substrate; 30 °C; PBS, 0.02% Tween-20, 0.1% BSA, 0.1 mM TCEP; 2:1 heterogeneous ligand fit. (In general: BLI is a label-free optical method that tracks binding on a fibre tip over time.)

The next assay has as its target T1, Npl4 (S. cerevisiae) (S. cerevisiae, UniProt P33755 1-580).
T1 construct: Npl4, S. cerevisiae, codon-optimized gene; source: E. coli BL21-CodonPlus (DE3)-RIL, purified with Ufd1 (Ni-NTA, TEV protease, SEC); not shown: His tag (from the Ni-NTA purification)
T1 sequence: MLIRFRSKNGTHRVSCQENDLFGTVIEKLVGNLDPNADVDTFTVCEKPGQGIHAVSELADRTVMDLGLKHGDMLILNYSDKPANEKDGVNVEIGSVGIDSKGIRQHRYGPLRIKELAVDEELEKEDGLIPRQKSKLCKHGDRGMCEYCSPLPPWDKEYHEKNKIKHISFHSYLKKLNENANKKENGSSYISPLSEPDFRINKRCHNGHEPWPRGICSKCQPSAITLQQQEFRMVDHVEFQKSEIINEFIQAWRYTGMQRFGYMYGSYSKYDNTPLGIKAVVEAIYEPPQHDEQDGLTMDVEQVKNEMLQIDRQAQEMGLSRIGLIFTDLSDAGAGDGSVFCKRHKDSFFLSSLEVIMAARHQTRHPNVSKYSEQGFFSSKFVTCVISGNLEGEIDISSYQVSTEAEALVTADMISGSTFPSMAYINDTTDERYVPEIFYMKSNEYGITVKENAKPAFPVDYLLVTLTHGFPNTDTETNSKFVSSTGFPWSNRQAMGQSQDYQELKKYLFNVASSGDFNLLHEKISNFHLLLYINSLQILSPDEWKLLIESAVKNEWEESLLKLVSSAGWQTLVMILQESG
Description: cryo-EM structure; 2 μM Ufd1/Npl4, 2 μM Cdc48, 2.5 μM 1S1U^H-mEOS, on ice with 1 mM ATP in 20 mM HEPES pH 8.0, 150 mM NaCl, 0.1 mM TCEP, 5 mM MgCl2; single-particle. The settings on record: both partners purified.

For “1S1U-mEOS substrate without polyubiquitin chain (one SUMO and one ubiquitin fused end to end with the N-terminus of mEOS) (from UniProt Q12306 1-101; P0CG63 1-76)”, the fold binding defect against WT Ufd1/Npl4 in assay [1] is 100 fold.

B1: Ufd1 (S. cerevisiae) (natural protein)
chain: MFSGFSSFGGGNGFVNMPQTFEEFFRCYPIAMMNDRIRKDDANFGGKIFLPPSALSKLSMLNIRYPMLFKLTANETGRVTHGGVLEFIAEEGRVYLPQWMMETLGIQPGSLLQISSTDVPLGQFVKLEPQSVDFLDISDPKAVLENVLRNFSTLTVDDVIEISYNGKTFKIKILEVKPESSSKSICVIETDLVTDFAPPVGYVEPDYKALKAQQDKEKKNSFGKGQVLDPSVLGQGSMSTRIDYAGIANSSRNKLSKFVGQGQNISGKAPKAEPKQDIKDMKITFDGEPAKLDLPEGQLFFGFPMVLPKEDEESAAGSKSSEQNFQGQGISLRKSNKRKTKSDHDSSKSKAPKSPEVIEID
notes: Ufd1, S. cerevisiae, codon-optimized gene; residues 228 to 256 and 281 to 311 resolved in the maps; source: E. coli BL21-CodonPlus (DE3)-RIL, purified with Npl4 (Ni-NTA, TEV protease, SEC); not shown: His tag (from the Ni-NTA purification)
As for B1, the binding result with Npl4 (S. cerevisiae) is recorded as “binds”.
